Target: the molecule itself
Assay: SDS-polyacrylamide gel electrophoresis and blot; recombinant His-tagged Hbδ and Hbβ (HbAo) on a 4-20% SDS gel and blotted; non-reducing conditions in the legend, reducing conditions in the text

B1: recombinant Hbδ (natural protein)
chain: not shown
notes: hemoglobin subunit delta, recombinant, His-tagged (Origene); No catalogue number is printed; also called His-tagged recombinant Hbδ; source: bought: Origene
B1: binds.
